# Laboratory results as given in paper PMC8968458.
# Target: p65 (UniProt Q04206)
# Test: pull-down of SFB-tagged RB-N from cells
# Settings: reference: SFB-RB-N wild type; sites S249,T252
substance,measurement,value
RB N-terminal portion (RB-N) (from UniProt P06400) S249A/T252A,binding against the reference,weaker
